Data: article PMC12065913

Key:
[1] = molecular target: AceE fragment 5, stalled nascent chain (E. coli); assay: optical tweezers with two-color confocal single-molecule fluorescence; single stalled ribosome-nascent chain complexes tethered between beads by DNA handles; 100 nM labelled TF and 100 nM labelled DnaK in solution, with or without 17 nM DnaJ and 10 nM GrpE; TICO buffer, 1 mM ATP and regeneration system
[2] = molecular target: AceE fragment 2, stalled nascent chain (E. coli) (UniProt P0AFG8); assay: as above
UniProt P0AFG8, sequence (P0AFG8 1-200): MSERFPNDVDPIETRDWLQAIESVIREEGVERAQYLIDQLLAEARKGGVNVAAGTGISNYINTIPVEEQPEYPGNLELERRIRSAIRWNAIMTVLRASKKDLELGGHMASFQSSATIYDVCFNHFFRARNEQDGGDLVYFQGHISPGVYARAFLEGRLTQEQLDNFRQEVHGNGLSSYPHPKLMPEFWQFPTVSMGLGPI

Row | residence time (nascent chains folded by more than one-third) [1] | residence time (nascent chains less than one-third folded) [1] | binding time (more folded nascent chains) [2] | Substance
1 | > 10 s | < 5 s | – | DnaK-290C, ATTO532 labelled (from UniProt P0A6Y8 1-638) (natural protein)
2 | – | – | > 50 s | TF-99C, ATTO647N labelled (from UniProt P0A850 1-432) (natural protein)
